Laboratory results: patent US20240301067A1

How the values were obtained:
[1] = target: Human PD-1 on CHO-S cells (human) (UniProt Q15116); assay: FACS on CHO-S.hPro1.C6 cells
[2] = target: Cynomolgus monkey PD-1 on transiently transfected 293F cells (cynomolgus monkey); assay: FACS on cyno PD-1 transfected 293F cells, experiment 1
[3] = target: Cynomolgus monkey PD-1 on transiently transfected 293F cells (cynomolgus monkey); assay: FACS on cyno PD-1 transfected 293F cells, experiment 2
[4] = target: Human PD-1 on CHO-S cells (human) (UniProt Q15116); assay: FACS competition on CHO-S.hPro1.C6 cells; competitor hProL1.ECD.mFc 5 µg/mL
[5] = target: Cynomolgus PD-1 (soluble analyte in SPR, Table 11) (cynomolgus) (UniProt B0LAJ3); assay: SPR Biacore 8K; antibody captured on anti-human Fc chip, PD-1 injected; 1:1 fit
[6] = target: Human PD-1 (soluble analyte in SPR, Table 11) (human) (UniProt Q15116); assay: as above
[7] = target: Human PD-1 extracellular domain, mFc tag (human) (UniProt Q15116); assay: ELISA competition on coated hPro1.ECD.mFc; competitor hPro1L2.ECD.His; experiment 1
[8] = target: Human PD-1 extracellular domain, mFc tag (human) (UniProt Q15116); assay: ELISA competition on coated hPro1.ECD.mFc; competitor hPro1L2.ECD.His; experiment 2
[9] = target: Cynomolgus PD-1 extracellular domain, hFc tag (cynomolgus) (UniProt B0LAJ3); assay: ELISA competition on coated cynoPro1.ECD.hFc; competitor cynoProL1.ECD.hFc.biotin 2.5 µg/mL; experiment 1
[10] = target: Cynomolgus PD-1 extracellular domain, hFc tag (cynomolgus) (UniProt B0LAJ3); assay: ELISA competition on coated cynoPro1.ECD.hFc; competitor cynoProL1.ECD.hFc.biotin 2.5 µg/mL; experiment 2

Chain of Human PD-1 on CHO-S cells (human) (Q15116 25-288): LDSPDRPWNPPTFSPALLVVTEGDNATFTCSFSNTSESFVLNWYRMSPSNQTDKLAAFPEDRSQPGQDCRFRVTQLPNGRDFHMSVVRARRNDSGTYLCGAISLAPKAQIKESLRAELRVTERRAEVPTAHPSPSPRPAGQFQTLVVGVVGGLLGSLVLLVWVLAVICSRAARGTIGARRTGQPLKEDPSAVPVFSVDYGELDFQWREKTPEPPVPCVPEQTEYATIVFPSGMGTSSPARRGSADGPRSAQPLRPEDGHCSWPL
Chain of Cynomolgus PD-1 (soluble analyte in SPR, Table 11) (cynomolgus) (B0LAJ3 entry or part of it limits assumed): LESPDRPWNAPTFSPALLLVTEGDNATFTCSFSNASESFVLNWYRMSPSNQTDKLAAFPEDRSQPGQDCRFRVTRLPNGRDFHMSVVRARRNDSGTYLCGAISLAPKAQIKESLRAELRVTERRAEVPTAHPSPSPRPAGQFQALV
Chain of Human PD-1 (soluble analyte in SPR, Table 11) (human) (Q15116 25-167 limits assumed): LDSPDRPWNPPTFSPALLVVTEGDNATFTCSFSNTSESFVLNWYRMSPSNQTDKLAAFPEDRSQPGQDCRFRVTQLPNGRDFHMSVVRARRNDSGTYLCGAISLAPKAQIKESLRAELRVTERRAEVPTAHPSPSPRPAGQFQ
Chain of Cynomolgus PD-1 extracellular domain, hFc tag (cynomolgus) (B0LAJ3 entry or part of it limits assumed): as the sequence (B0LAJ3 entry or part of it limits assumed) above
Chain of Human PD-1 extracellular domain, mFc tag (human) (Q15116 25-170): as the sequence (B0LAJ3 entry or part of it limits assumed) above, with E2D, A10P, L19V, A35T, R75Q, A144T counted along it

## Benchmark antibody 1 (Opdivo, Nivolumab)
[1]
  EC50: 0.409 to 0.749 nM
[2]
  EC50: 0.55 nM
[3]
  EC50: 1.98 nM
[4]
  IC50: 0.544 nM
[5]
  Kd: 2.23 nM
  koff: 0.000672 s⁻¹
  kon: 301000 M⁻¹ s⁻¹
[6]
  Kd: 2.87 nM
  koff: 0.00116 s⁻¹
  kon: 405000 M⁻¹ s⁻¹
[7]
  IC50: 0.95 nM
[8]
  IC50: 0.534 nM
[9]
  IC50: 0.47 nM
[10]
  IC50: 0.585 nM
